From patent publication US6207419A, “Thrombin inhibitory agents and methods of using same” (The University of North Carolina at Chapel Hill, priority 1999, dated 2001) come the findings set out here.

Experiment [1] deals with plasma-purified α-thrombin. As to the kind of experiment: Thrombin inhibition with heparin before and after carboxypeptidase A digest. The settings on record: 2 hr, room temperature, FIG. 3. Type of experiment: biochemical, human. As to the method: Forty ng of CPA was combined with approximately 1 μg of recombinant protein and incubated at room temperature. Following a 2-hr incubation at room temperature, 2 mM EDTA was added to quench CPA activity. Controls were run in which EDTA was added to the reaction prior to the addition of CPA. CPA digested proteins were then assayed according to previously mentioned procedures.

The test system of experiment [2] is thrombin. As to the kind of experiment: pH titration of thrombin inhibition. Type of experiment: biochemical. To be noted: pH 6.2 to pH 8; FIG. 6. The source says: Therefore, it is possible that the enhanced thrombin inhibitory activity of rHCII-CHis6 (assayed at pH 7.4) is attributable to a charge on the carboxyl terminal tag. An assay was designed to measure thrombin inhibition by rHCII-CHis6 and wt-rHCII from pH 6.2 to pH 8.

For experiment [3], the system named is thrombin. Nature of the experiment: Plasma-based thrombin inhibition assay. Type of experiment: biochemical, human. To be noted: for Inhibition Rate k2 × 10^8 (M^-1 min^-1), thrombin in plasma: 10 nM serpin. The procedure: The assay to evaluate rHCII (wt and rHCII-CHis6) in plasma was designed based on previously published methods (Tollefsen, D. M., and Pestka, C. A. (1985) Blood 66(4), 769-774; Griffith, M. J., Carraway, T., White, G. C., and Dombrose, F. A. (1983) Blood 61(1), 111-118). All assays were performed at room temperature in 96-well microtiter plates previously coated with 2 mg/mL BSA. This assay was performed using normal hemostasis reference plasma (REF), human antithrombin III-deficient plasma (DEF), or a 50:50 mixture of these plasmas (REF/DEF). Within the assay, 10 nM rHCII or rHCII-CHis6 was incubated for 15 sec with I nM thrombin and 1 μg/mL heparin or 50 μg/mL dermatan sulfate, in the presence of a 1:100 dilution of plasma. Residual thrombin activity was measured with 300 μM GPA and 2 mg/mL pB. Substrate cleavage was measured by color development at […] on a Vmax Kinetic Microplate Reader. Second order rate constants were measured at least in triplicate on two recombinant protein preparations as described in Example 4.

In experiment [4] the test system is thrombin. Nature of the experiment: Thrombin inhibition in the absence of glycosaminoglycan. The format is biochemical, human. The procedure:
All assays were performed at room temperature in 96-well microtiter plates previously coated with 2 mg/mL BSA.
(§1) Residual thrombin activity was measured with 150 μM GlyProArg-NA and 1 mg/mL pB in the absence of glycosaminoglycan, 2 mg/mL pB in the presence of heparin and 4 mg/mL in the presence of dermatan sulfate. Residual factor Xa activity was measured with 500 μM Spectrozyme FXa and 2mg/mL pB in the presence or absence of glycosaminoglycan. Residual chymotrypsin activity was measured with 150 μM AlaAlaProPhe-NA and residual trypsin activity was measured with 150 μM GlyProArg-NA.
(§2) Assays were performed at least in triplicate on two or more recombinant protein preparations.

The target in experiment [5] is T1, α-thrombin (Homo sapiens, UniProt P00734).
T1 construct: Human α-thrombin, HCII, and ATIII were purified in our laboratory from plasma; from tissue; host or cells: human plasma (purified in the authors' laboratory)
Nature of the experiment: Effect of hirugen on thrombin inhibition in the absence of glycosaminoglycan. Type of experiment: biochemical. The procedure:
as §1, §2

The test system of experiment [6] is chymotrypsin. Nature of the experiment: Chymotrypsin inhibition in the absence of glycosaminoglycan. Type of experiment: biochemical. As to the method:
Protease inhibition rates were determined as described previously (Rogers, S. J., Pratt, C. W., Whinna, H. C., and Church, F. C. (1992) J. Biol. Chem. 267(6), 3613-3617; Whinna, H. C., Choi, H. U., Rosenberg, L. C., and Church, F. C. (1993) J. Biol. Chem. 268, 3920-3924; Ciaccia, A. V., Cunningham, E. L., and Church, F. C. (1995) Protein Express. Purific. 6, 806-812; Ciaccia, A. V., Willemze, A. J., and Church, F. C. (1997) J. Biol. Chem. 272(2), 888-893). All assays were performed at room temperature in 96-well microtiter plates previously coated with 2 mg/mL BSA.
In the absence of glycosaminoglycan, 50-100 nM rHCII (wt, CHis6, CHis5 Pro, L444R, or L444R-CHis6) or rATIII (wt or CHis6) was incubated with 1 nM thrombin, 0.5 nM Factor Xa, 2 nM chymotrypsin, or 5 nM trypsin, in the presence of 1 mg/mL Polybrene (pB) (for thrombin and Factor Xa) and 2 mg/mL BSA in HNPN, pH 7.4.
Residual thrombin activity was measured with 150 μM GlyProArg-NA and 1 mg/mL pB in the absence of glycosaminoglycan, 2 mg/mL pB in the presence of heparin and 4 mg/mL in the presence of dermatan sulfate. Residual factor Xa activity was measured with 500 μM Spectrozyme FXa and 2mg/mL pB in the presence or absence of glycosaminoglycan. Residual chymotrypsin activity was measured with 150 μM AlaAlaProPhe-NA and residual trypsin activity was measured with 150 μM GlyProArg-NA. Substrate cleavage was measured by color development at […] on a Vmax Kinetic Microplate Reader (Molecular Devices).
Assays were performed at least in triplicate on two or more recombinant protein preparations. All inhibition studies were measured under pseudo-first order conditions where inhibitor [I] is at least ten-fold higher than enzyme (protease) [E], and second-order rate constants were calculated as described previously (Ciaccia, A. V., Cunningham, E. L., and Church, F. C. (1995) Protein Express. Purific. 6, 806-812; Ciaccia, A. V., Willemze, A. J., and Church, F. C. (1997) J. Biol. Chem. 272(2), 888-893).

Experiment [7] in a line: Heparin-Sepharose affinity chromatography. The format is binding. To be noted: NaCl gradient, 20 mM Hepes pH 7.4. The procedure: 100 μL of each fraction was aliquoted onto a 96-well microtiter plate and ELISA was performed. The peak elution ionic strength was determined by plotting 405 nm color development and NaCl concentration against the fraction number. All samples were run at least in triplicate using two or more protein preparations. Recombinant ATIII samples were run similarly to the HCII samples, except the elution gradient was run from 50 mM to 2 M NaCl.

B1: rHCII-CHis6: Recombinant HCII with six histidine residues added at the carboxyl terminus; SEQ ID NO:5 (protein)
chain: MKHSLNALLIFLIITSAWGGSKGPLDQLEKGGETAQSADPQWEQLNNKNLSMPLLPADFHKENTVTNDWIPEGEEDDDYLDLEKIFSEDDDYIDIVDSLSVSPTDSDVSAGNILQLFHGKSRIQRLNILNAKFAFNLYRVLKDQVNTFDNIFIAPVGISTAMGMISLGLKGETHEQVHSILHFKDFVNASSKYEITTIHNLFRKLTHRLFRRNFGYTLRSVNDLYIQKQFPILLDFRTKVREYYFAEAQIADFSDPAFISKTNNHIMKLTKGLIKDALENIDPATQMMILNCIYFKGSWVNKFPVEMTHNHNFRLNEREVVKVSMMQTKGNFLAANDQELDCDILQLEYVGGISMLIVVPHKMSGMKTLEAQLTPRVVERWQKSMTNRTREVLLPKFKLEKNYNLVESLKLMGIRMLFDKNGNMAGISDQRIAIDLFKHQGTITVNEEGTQATTVTTVGFMPLSTQVRFTVDRPFLFLIYEHRTSCLLFMGRVANPSRSHHHHHH
modifications: C-terminal His6 tag
With B1, in experiment [1], the “change of heparin-dependent thrombin inhibition after CPA digest, in words” value is recorded as “shifts to lower rates of inhibition”. Besides, in experiment [2], the “inhibition of thrombin over pH titration, in words” value is given as “greater than that by wt-rHCII”. Further, the “increase of thrombin inhibition rate compared to wt-rHCII” value in experiment [3] (50 μg/mL dermatan sulfate, each of the plasma conditions) is on record as 1.2-1.3 fold; in experiment [3] (50:50 mixture of REF/DEF, 1 μg/mL heparin), 1.5 fold; in experiment [3] (DEF plasma, 1 μg/mL heparin) it was 4.6 fold; in experiment [3] (REF plasma, 1 μg/mL heparin), 1.5 fold. The “Inhibition Rate k2 × 10^8 (M^-1 min^-1), thrombin in plasma” value is 7.0 × 10^8 (M^-1 min^-1) in experiment [3] (Dermatan Sulfate (50 μg/mL), 50:50 Mixture (REF/DEF) plasma 1:100); 7.5 × 10^8 (M^-1 min^-1) in experiment [3] (Dermatan Sulfate (50 μg/mL), ATIII Deficient (DEF) plasma 1:100); 7.2 × 10^8 (M^-1 min^-1) in experiment [3] (Dermatan Sulfate (50 μg/mL), Normal Reference (REF) plasma 1:100); 2.8 ± .18 × 10^8 (M^-1 min^-1) in experiment [3] (Heparin (1 μg/mL), 50:50 Mixture (REF/DEF) plasma 1:100); 1.2 ± .10 × 10^8 (M^-1 min^-1) in experiment [3] (Heparin (1 μg/mL), ATIII Deficient (DEF) plasma 1:100); 3.3 ± .37 × 10^8 (M^-1 min^-1) in experiment [3] (Heparin (1 μg/mL), Normal Reference (REF) plasma 1:100). In experiment [4], the “Ratio (mutant/wt serpin), thrombin” value amounted to 1.48. Further, the “rate of thrombin inhibition relative to wt-rHCII” value in experiment [4] is 1.5 fold. Also, the “k2 × 10^4 (M^-1 min^-1), thrombin” value in experiment [4] (pH 7.4, mean ± S.D.) is recorded as 1.92 ± .10 × 10^4 (M^-1 min^-1). In addition, the “reduction of rate of thrombin inhibition by hirugen” value in experiment [5] (hirugen 20 μM, absence of glycosaminoglycan) was > 50%. In addition, the “rate constant of inhibition (k2) in the absence of peptide” value in experiment [5] (no hirugen, no control peptide, FIG. 5) turned out to be 310 M⁻¹ s⁻¹. Also, in experiment [6], the “Ratio (mutant/wt serpin), chymotrypsin” value is given as “.860”. The “chymotrypsin inhibition compared with wt-rHCII, in words” value in experiment [6] is reported as “essentially the same”. Further, the “k2 × 10^4 (M^-1 min^-1), chymotrypsin” value in experiment [6] (pH 7.4, mean ± S.D.) is on record as 61.0 ± 16 × 10^4 (M^-1 min^-1). Moreover, the “Heparin-Sepharose [NaCl], peak elution concentration” value in experiment [7] is recorded as 575 mM.
